Molecular target: the molecule itself
Assay: SEC; analytical size exclusion chromatography of recombinant CDH26A, 'in cell lysates'; details in the Supplementary Information

B1: full-length recombinant CDH26A (cadherin-26, transcript variant A) (natural protein, human, UniProt Q8IXH8-4 28-832, looked up)
chain: DSVQQETDDLTKQTKEKIYQPLRRSKRRWVITTLELEEEDPGPFPKLIGELFNNMSYNMSLMYLISGPGVDEYPEIGLFSLEDHENGRIYVHRPVDREMTPSFTVYFDVVERSTGKIVDTSLIFNIRISDVNDHAPQFPEKEFNITVQENQSAGQPIFQMLAVDLDEENTPNSQVLYFLISQTPLLKESGFRVDRLSGEIRLSGCLDYETAPQFTLLIRARDCGEPSLSSTTTVHVDVQEGNNHRPAFTQENYKVQIPEGRASQGVLRLLVQDRDSPFTSAWRAKFNILHGNEEGHFDISTDPETNEGILNVIKPLDYETRPAQSLIIVVENEERLVFCERGKLQPPRKAAASATVSVQVTDANDPPAFHPQSFIVNKEEGARPGTLLGTFNAMDPDSQIRYELVHDPANWVSVDKNSGVVITVEPIDRESPHVNNSFYVIIIHAVDDGFPPQTATGTLMLFLSDINDNVPTLRPRSRYMEVCESAVHEPLHIEAEDPDLEPFSDPFTFELDNTWGNAEDTWKLGRNWGQSVELLTLRSLPRGNYLVPLFIGDKQGLSQKQTVHVRICPCASGLTCVELADAEVGLHVGALFPVCAAFVALAVALLFLLRCYFVLEPKRHGCSVSNDEGHQTLVMYNAESKGTSAQTWSDVEGQRPALLICTAAAGPTQGVKDLEEVPPSAASQSAQARCALGSWGYGKPFEPRSVKNIHSTPAYPDATMHRQLLAPVEGRMAETLNQKLHVANVLEDDPGYLPHVYSEEGECGGAPSLSSLASLEQELQPDLLDSLGSKATPFEEIYSESGVPS
notes: cadherin-26 (CDH26), human, product of transcript variant A (NM_177980; 18 exons; predicted protein molecular weight 92.4 kDa); full-length recombinant protein; also called rCDH26A; source: purified by the University of North Carolina Protein Expression and Purification Core Facility; for the analytical SEC 'in cell lysates'
B1: binds.
